Results published in the Human Domainome abundance scans (Beltran et al. 2025).
± gives the uncertainty stated by the source.

B1: GA-binding protein alpha chain, residues 172 to 250; numbered along this chain, Q06546 (parent)
chain: GYRKEQERLGIPYDPIQWSTDQVLHWVVWVMKEFSMTDIDLTTLNISGRELCSLNQEDFFQRVPRGEILWSHLELLRKY

Variants of: B1
Assay: abundance fitness (aPCA) (normalised: wild type 0, dead -1); higher = more abundant; growth selection in yeast, the domain comes from the species named
Conditions: Homo sapiens

First: GYRKEQERLGIPYDPIQWSTDQVLHWVVWVMKEFSMTDIDLTTLNISGRELCSLNQEDFPQRVPRGEILWSHLELLRKY
Second: GYRKEQERLGIPYDPIQWSTDQVLHWVVWVMKEFSMTDIDLTTLNISGRELCSLNQEDFIQRVPRGEILWSHLELLRKY
The abundance fitness of the first is lower: -0.527 ± 0.062 for the first, 0.039 ± 0.1 for the second.

GYRKEQERLGIPYDPIQWSTDQVLHWVVWVMKEFSMTDIDLTTLNISGRELCSLNQEDFNQRVPRGEILWSHLELLRKY and GYRKEQERLGIPYDPIQWSTDQVLHWVVWVMKEFSMTDIDLTTLNISGRELCSLNQEDFGQRVPRGEILWSHLELLRKY are within error of each other in abundance fitness: -0.183 ± 0.17 for the first, -0.101 ± 0.038 for the second.

GYRKEQERLGIPYDPIQWSTDQVLHWVVWVMKEFSMTDIDLTTLNISGRELCSLNQEDFKQRVPRGEILWSHLELLRKY and GYRKEQERLGIPYDPIQWSTDQVLHWVVWVMKEFSMTDIDLTTLNISGRELCSLNQEDFHQRVPRGEILWSHLELLRKY are within error of each other in abundance fitness: -0.048 ± 0.092 for the first, -0.118 ± 0.13 for the second.

GYRKEQERLGIPYDPIQWSTDQVLHWVVWVMKEFSMTDIDLTTLNISGRELCSLNQEDFCQRVPRGEILWSHLELLRKY and GYRKEQERLGIPYDPIQWSTDQVLHWVVWVMKEFSMTDIDLTTLNISGRELCSLNQEDFEQRVPRGEILWSHLELLRKY are within error of each other in abundance fitness: -0.088 ± 0.11 for the first, -0.074 ± 0.097 for the second.

First: GYRKEQERLGIPYDPIQWSTDQVLHWVVWVMKEFSMTDIDLTTLNISGRELCSLNQEDFQQRVPRGEILWSHLELLRKY
Second: GYRKEQERLGIPYDPIQWSTDQVLHWVVWVMKEFSMTDIDLTTLNISGRELCSLNQEDFMQRVPRGEILWSHLELLRKY
The abundance fitness of the first is lower: -0.053 ± 0.071 for the first, 0.121 ± 0.1 for the second.

GYRKEQERLGIPYDPIQWSTDQVLHWVVWVMKEFSMTDIDLTTLNISGRELCSLNQEDFLQRVPRGEILWSHLELLRKY and GYRKEQERLGIPYDPIQWSTDQVLHWVVWVMKEFSMTDIDLTTLNISGRELCSLNQEDFAQRVPRGEILWSHLELLRKY are within error of each other in abundance fitness: 0.033 ± 0.042 for the first, -0.03 ± 0.046 for the second.

GYRKEQERLGIPYDPIQWSTDQVLHWVVWVMKEFSMTDIDLTTLNISGRELCSLNQEDGFQRVPRGEILWSHLELLRKY and GYRKEQERLGIPYDPIQWSTDQVLHWVVWVMKEFSMTDIDLTTLNISGRELCSLNQEDNFQRVPRGEILWSHLELLRKY are within error of each other in abundance fitness: -0.888 ± 0.063 for the first, -0.74 ± 0.19 for the second.

GYRKEQERLGIPYDPIQWSTDQVLHWVVWVMKEFSMTDIDLTTLNISGRELCSLNQEDVFQRVPRGEILWSHLELLRKY and GYRKEQERLGIPYDPIQWSTDQVLHWVVWVMKEFSMTDIDLTTLNISGRELCSLNQEDAFQRVPRGEILWSHLELLRKY are within error of each other in abundance fitness: -0.803 ± 0.072 for the first, -0.813 ± 0.082 for the second.

Going from GYRKEQERLGIPYDPIQWSTDQVLHWVVWVMKEFSMTDIDLTTLNISGRELCSLNQEDLFQRVPRGEILWSHLELLRKY to GYRKEQERLGIPYDPIQWSTDQVLHWVVWVMKEFSMTDIDLTTLNISGRELCSLNQEDEFQRVPRGEILWSHLELLRKY, the abundance fitness falls from -0.424 ± 0.041 to -0.954 ± 0.15.

GYRKEQERLGIPYDPIQWSTDQVLHWVVWVMKEFSMTDIDLTTLNISGRELCSLNQEDHFQRVPRGEILWSHLELLRKY and GYRKEQERLGIPYDPIQWSTDQVLHWVVWVMKEFSMTDIDLTTLNISGRELCSLNQEDPFQRVPRGEILWSHLELLRKY are within error of each other in abundance fitness: -0.931 ± 0.23 for the first, -1.02 ± 0.17 for the second.

GYRKEQERLGIPYDPIQWSTDQVLHWVVWVMKEFSMTDIDLTTLNISGRELCSLNQEDCFQRVPRGEILWSHLELLRKY and GYRKEQERLGIPYDPIQWSTDQVLHWVVWVMKEFSMTDIDLTTLNISGRELCSLNQEDSFQRVPRGEILWSHLELLRKY are within error of each other in abundance fitness: -0.972 ± 0.3 for the first, -0.626 ± 0.068 for the second.

Compared with GYRKEQERLGIPYDPIQWSTDQVLHWVVWVMKEFSMTDIDLTTLNISGRELCSLNQEDYFQRVPRGEILWSHLELLRKY, GYRKEQERLGIPYDPIQWSTDQVLHWVVWVMKEFSMTDIDLTTLNISGRELCSLNQEDRFQRVPRGEILWSHLELLRKY is higher in abundance fitness: -0.853 ± 0.13 for the first, -0.552 ± 0.058 for the second.

First: GYRKEQERLGIPYDPIQWSTDQVLHWVVWVMKEFSMTDIDLTTLNISGRELCSLNQEDIFQRVPRGEILWSHLELLRKY
Second: GYRKEQERLGIPYDPIQWSTDQVLHWVVWVMKEFSMTDIDLTTLNISGRELCSLNQEDTFQRVPRGEILWSHLELLRKY
The abundance fitness of the first is higher: -0.507 ± 0.12 for the first, -1.02 ± 0.27 for the second.

First: GYRKEQERLGIPYDPIQWSTDQVLHWVVWVMKEFSMTDIDLTTLNISGRELCSLNQEDWFQRVPRGEILWSHLELLRKY
Second: GYRKEQERLGIPYDPIQWSTDQVLHWVVWVMKEFSMTDIDLTTLNISGRELCSLNQEDKFQRVPRGEILWSHLELLRKY
The abundance fitness of the first is higher: -0.263 ± 0.051 for the first, -0.815 ± 0.22 for the second.

GYRKEQERLGIPYDPIQWSTDQVLHWVVWVMKEFSMTDIDLTTLNISGRELCSLNQETFFQRVPRGEILWSHLELLRKY and GYRKEQERLGIPYDPIQWSTDQVLHWVVWVMKEFSMTDIDLTTLNISGRELCSLNQEQFFQRVPRGEILWSHLELLRKY are within error of each other in abundance fitness: -0.053 ± 0.09 for the first, -0.03 ± 0.053 for the second.

Compared with GYRKEQERLGIPYDPIQWSTDQVLHWVVWVMKEFSMTDIDLTTLNISGRELCSLNQEYFFQRVPRGEILWSHLELLRKY, GYRKEQERLGIPYDPIQWSTDQVLHWVVWVMKEFSMTDIDLTTLNISGRELCSLNQESFFQRVPRGEILWSHLELLRKY is higher in abundance fitness: -0.165 ± 0.085 for the first, 0.003 ± 0.042 for the second.

Compared with GYRKEQERLGIPYDPIQWSTDQVLHWVVWVMKEFSMTDIDLTTLNISGRELCSLNQERFFQRVPRGEILWSHLELLRKY, GYRKEQERLGIPYDPIQWSTDQVLHWVVWVMKEFSMTDIDLTTLNISGRELCSLNQEWFFQRVPRGEILWSHLELLRKY is lower in abundance fitness: -0.092 ± 0.037 for the first, -0.19 ± 0.046 for the second.

GYRKEQERLGIPYDPIQWSTDQVLHWVVWVMKEFSMTDIDLTTLNISGRELCSLNQEVFFQRVPRGEILWSHLELLRKY showed an abundance fitness of -0.091 ± 0.044.
